Measurements reported in US20190248902A1 (published 2019).
Positions count from the first letter of the chain named.

T1: recombinant, soluble human ASGR-1 (human, UniProt P07306 62-291)
T1 construct: biotinylated in the binning assay; also called soluble huASGR-1; Soluble ASGR-1 (Amgen)
T1 sequence: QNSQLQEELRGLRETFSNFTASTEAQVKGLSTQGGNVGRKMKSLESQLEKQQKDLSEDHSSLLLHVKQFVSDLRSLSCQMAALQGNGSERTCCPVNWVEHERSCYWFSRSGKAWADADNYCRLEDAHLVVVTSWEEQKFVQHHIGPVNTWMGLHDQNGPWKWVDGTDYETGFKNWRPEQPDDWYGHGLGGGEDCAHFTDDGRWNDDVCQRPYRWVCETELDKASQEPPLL

B1: 218G4 (antibody, V domains shown)
VH: QVQLVESGGGVVQPGRSLRLSCAASGFTFSSYGLHWVRQAPGKGLEWVAVIWYDGSNKYYADSVKGRFTISRDNSKNTLYLQMNSLRVEDTAVYYCANWYYYYYGMDVWGQGTTVTVSS
VL: QSVLTQPPSVSAAPGQKVTISCSGSSSNIGNNYVSWYQQLPGTAPKLLLYDSNKRPSGIPARFSGSKSGTSATLGITGLQTGDEADYYCGTWDSSLNTVVFGGGTKLTVL
notes: hybridoma mAb
B2: 149A1 (antibody, V domains shown)
VH: EVQLVESGGGLVQPGGSLRLSCAASGFTFSSYNMNWVRQAPGKGLEWVSYISRSSNTKHYADSVKGRFTISRDNAKNSLYLQMNSLRDEDTAVYYCARDRSGSYGYFYYYGLDVWGQGTTVTVSS
VL: not shown
notes: hybridoma mAb
B3: 146B6 (antibody, V domains shown)
VH: B2 VH with N84D
VL: not shown
notes: hybridoma mAb
B4: 146A8 (antibody, V domains shown)
VH: B2 VH with Q3K, G16E, A23V, S31N, H59Y, K65R
VL: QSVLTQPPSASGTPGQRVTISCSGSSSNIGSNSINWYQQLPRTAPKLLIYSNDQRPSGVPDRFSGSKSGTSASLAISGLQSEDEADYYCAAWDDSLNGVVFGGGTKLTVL
notes: hybridoma mAb
B5: 75G3 (antibody, V domains shown)
VH: QVQLQQWGAGLLKPSETLSLTCAVYGGSLSGSYWSWIRQPPGKGLEWIGEINLSGSTNYNPSLKSRVTISVDTSKSQFSLTLRSVTAADTAVYYCARDYGGLDYWGQGTLVTVSS
VL: EIVLTQSPGTLSLSPGERATLSCRARQNVDSSYLAWYQQKPGQAPRLLIYGASSRATGIPDRFSGSGSGTDFTLTISRLEPEDFAVFYCQQYERSPWTFGQGTKVEIK
notes: hybridoma mAb
B6: 74H7 (antibody, V domains shown)
VH: B5 VH with T17P, L29F, S32P, L53H, S76N, T81K, R83T, Y104V, L110T
VL: B5 VL with I2L, R26S, V29I, D30Y, F87Y, Y88C, R94S
notes: hybridoma mAb
B7: 85F7 (antibody, V domains shown)
VH: B5 VH with T17P, L29F, S32P, L53H, S76N, T81K, R83T, Y104V, L110T
VL: B5 VL with I2P, R26S, V29I, D30Y, S32N, F87Y, Y88C, R94S
notes: hybridoma mAb
B8: 74B2 (antibody, V domains shown)
VH: QVQLQQWGAGLLKPSEPLSLTCAVYGGSFSGPYWSWIRQPPGKGLEWIGEINHSGSTNYNPSLTSRVTISVDTSKNQFSLKLTSVTAADSAVYYCARDYGGLDVWGQGTTVTVSS
VL: B5 VL with I2L, R26S, V29I, D30Y, F87Y, Y88C, R94S
notes: hybridoma mAb
B9: 226F9 (antibody, V domains shown)
VH: QVQLVQSGAEVKKPGASVKVSCKASGYTFTGYYIHWVRQAPGQGLEWMGWINPYSGDTKYAQKFQGRVTMTRATSISTAYMELSRLRFDDTAVFYCARDWGGYSSYYYGMDVWGQGTTVTVSS
VL: DIVMTQTPLSLSVTPGQPASISCKSSQSLLHSDGKTFLYWYLQKPGQPPQLLIYEISNRFSGVPDRFSGSGSGTDFTLKISRVEAEDVGIYYCMQSTQLPRTFGQGTKVEIK
notes: hybridoma mAb
B10: 224G1 (antibody, V domains shown)
VH: B9 VH with K59N, A73D
VL: B9 VL with S26G, Y39S, Y91F
notes: hybridoma mAb
B11: 227C1 (antibody, V domains shown)
VH: B9 VH with I34T, D57G, K59N, A73D, F94Y
VL: B9 VL
notes: hybridoma mAb
B12: 198B9 (antibody, V domains shown)
VH: QVQLVESGGGVVQPGRSLRLSCAASGFTFSNYGMHWVRQAPGKGLEWVAIIWFDGSNKYYVDSVKGRFTISRDNSKNTLFLQMSSLRAEDTAVYYCAREWLQFRYYYGMDVWGQGTTVTVSS
VL: DIQMTQSPSSLSASVGDRVTITCRASQGIRKDLGWYQQKPGKAPKRLIYAASSLQSGVPSRFSGSGSGTEFTLTISSLQPEDFATYVCLQHYRYPFTFGPGTKVDFK
notes: hybridoma mAb
B13: 193E7 (antibody, V domains shown)
VH: QVQLQQWGAGLLKPSETLSLTCAVYGGSFSGYFWTWIRQPPGKGLEWIGEINHSGSTNYNPSLKSRVTISVDTSKNQFSLKLSSVTAADTAVYYCARDYGADYWGQGTLVAVSA
VL: B12 VL with K31N, A50S, S56R, V87Y, Y92K, F96L, P100G, D105E, F106I
notes: hybridoma mAb
B14: 199A7 (antibody, V domains shown)
VH: B12 VH with V61A
VL: B12 VL
notes: hybridoma mAb
B15: 199E3 (antibody, V domains shown)
VH: B13 VH
VL: B12 VL with K31N, Y49S, A50S, S56R, V87Y, Y92K, F96L, P100G, D105E, F106I
notes: hybridoma mAb
B16: 213B3 (antibody, V domains shown)
VH: QVQLVESGGGVVQPGRSLRLSCAASGFTFSSYGMHWVRQAPGKGLEWVAVIWYDGSNKNYADSVKGRFTISRDNSKNTLYLQMNSLRAEDTAVYYCARDRTVGYDGFDIWGQGTMVTVSS
VL: DIQMTQSPSSLSASVGDRVTITCRASQGIGKYLAWFQQKPGKAPKSLISAASSVLSGVPSKFSGSGSGTDFTLTISSLQPEDFATYYCQKYDTYPFTFGPGTKVDIK
notes: hybridoma mAb
B17: 74C8 (antibody, V domains shown)
VH: B16 VH with R100G, T101S, V102Y, F107L, I109Y, M115L
VL: DIQMTQSPSSLSASVGDRVTITCRASQGIGKYLAWFQQKPGKAPKSLIYTTSNLQSGAPSKFSGSGSGTDFTLTISSLQYEDFATYYCQQYSNYPLTFGGGTKVEIN
notes: hybridoma mAb
B18: 219H1 (antibody, V domains shown)
VH: B16 VH with S31R, N59H, A88G, T101G, D105N, F107M, I109V, M115T
VL: DIQMTQSPSSQSASVGDRVTITCRASQGISNYLDWFQQKPGKAPKSLIYSASNLQSGVPSKFSGSRSGTDFTLTISSLQPEDFATYYCQHYSNYPLTFGGGTKVEIK
notes: hybridoma mAb
B19: 74G6 (antibody, V domains shown)
VH: B16 VH with R100G, T101S, V102Y, F107L, I109Y, M115L
VL: B17 VL with N53S
notes: hybridoma mAb
B20: 172B12 (antibody, V domains shown)
VH: QVQLVQSGAEVKKPGASVTVSCKASGYTFRSYYMYWVRQAPGQGLEWVGTINPSGGSTDYAQKFQGRVTMTRDTSTSTLYMELNSLRSEDTAVYYCASGWELNYWGQGTLVTVSS
VL: SSELTQDPAVSVALGQTVRITCQGDSLRNYYASWYQQKPGQAPILVIYTKNSRPSGIPDRFSGSTSGNTASLTITGAQAEDEADYYCNSRDSSGNHVVFGGGTKLTVL
notes: hybridoma mAb
B21: 172C3 (antibody, V domains shown)
VH: B20 VH with T19K, D59N
VL: B20 VL with A32V, A77T
notes: hybridoma mAb

What was measured:
[1] = target: T1, recombinant, soluble human ASGR-1; assay: Octet BLI dissociation, pH 5.6 minus calcium
Procedure, shortened: (§1)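 Antibodies were captured on anti-human Fc biosensors, and soluble ASGR-1 (6 ug/ml) was associated for 2 min in Tris buffer containing 1 mM CaCl2 at pH 7.4, followed by 10 min dissociation under each test condition. The signal at the end of association was set as 100%. Percent ASGR-1 still bound after 1 min of dissociation was compared with the pH 7.4 plus calcium control, and >10% extra dissociation was scored as sensitive.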

[2] = target: T1, recombinant, soluble human ASGR-1; assay: Octet BLI dissociation, pH 7.4 minus calcium
Procedure, shortened: as §1

[3] = target: T1, recombinant, soluble human ASGR-1; assay: Octet BLI dissociation, pH 5.6 plus calcium
Procedure, shortened: as §1

Row | Binder | % Change Compared to pH 7.4 + Calcium [1] [%] | % Change Compared to pH 7.4 + Calcium [2] [%] | % Change Compared to pH 7.4 + Calcium [3] [%]
1 | B1 | 0 | 1 | -4
2 | B2 | 9 | 2 | -7
3 | B3 | 13 | 2 | -5
4 | B4 | 25 | 2 | -9
5 | B5 | 2 | -1 | -1
6 | B6 | 1 | 1 | -2
7 | B7 | 2 | 2 | -2
8 | B8 | -5 | 8 | -9
9 | B9 | 77 | 100 | 51
10 | B10 | 65 | 77 | 41
11 | B11 | 73 | 100 | 54
12 | B12 | 11 | 3 | 2
13 | B13 | -4 | -9 | -9
14 | B14 | 10 | 1 | 1
15 | B15 | -4 | -5 | -4
16 | B16 | -3 | -1 | -7
17 | B17 | -3 | 1 | -7
18 | B18 | 1 | 2 | -3
19 | B19 | -4 | 1 | -9
20 | B20 | -13 | -14 | -27
21 | B21 | 0 | -9 | -26
